The source of these data is US7067713.

The target of this assay is C1s (Kordia, The Netherlands/Enzyme Research Lab. Inc., USA) (UniProt P09871). Description: cell-based or functional assay.
UniProt P09871, sequence (P09871 16-688 limits assumed): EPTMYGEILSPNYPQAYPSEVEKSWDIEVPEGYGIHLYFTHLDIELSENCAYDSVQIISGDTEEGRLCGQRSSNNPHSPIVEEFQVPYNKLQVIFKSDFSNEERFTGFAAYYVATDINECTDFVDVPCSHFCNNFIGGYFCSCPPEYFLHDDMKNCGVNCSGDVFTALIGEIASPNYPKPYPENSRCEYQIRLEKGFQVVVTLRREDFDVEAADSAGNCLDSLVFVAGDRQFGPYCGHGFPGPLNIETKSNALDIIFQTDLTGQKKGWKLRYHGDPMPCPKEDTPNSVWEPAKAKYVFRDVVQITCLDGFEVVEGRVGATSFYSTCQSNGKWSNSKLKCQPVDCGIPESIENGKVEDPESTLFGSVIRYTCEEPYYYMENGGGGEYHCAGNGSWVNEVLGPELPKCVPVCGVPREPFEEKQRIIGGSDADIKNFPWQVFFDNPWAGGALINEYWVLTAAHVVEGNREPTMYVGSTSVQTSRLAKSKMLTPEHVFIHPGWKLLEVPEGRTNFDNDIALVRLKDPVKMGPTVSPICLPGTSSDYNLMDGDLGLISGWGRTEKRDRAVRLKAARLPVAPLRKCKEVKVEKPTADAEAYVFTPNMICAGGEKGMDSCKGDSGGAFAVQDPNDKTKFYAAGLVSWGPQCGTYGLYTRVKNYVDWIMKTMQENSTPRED
For “Cetor (C1 inhibitor purified from pooled human plasma, CLB, The Netherlands) (from UniProt P05155 23-500)”, the functionality index (F.I.): ratio between functionally active C1 inhibitor (C1s inhibition test) and total C1 inhibitor antigen turned out to be 1.07.

As to “recombinant human C1 inhibitor purified from milk of transgenic rabbit line 2972p (from UniProt P05155 23-500)”, the functionality index (F.I.): ratio between functionally active C1 inhibitor (C1s inhibition test) and total C1 inhibitor antigen was 1.15.

Regarding “recombinant human C1 inhibitor purified from milk of transgenic rabbit line 2972q (from UniProt P05155 23-500)”, the functionality index (F.I.): ratio between functionally active C1 inhibitor (C1s inhibition test) and total C1 inhibitor antigen worked out at 1.07.

Turning to “recombinant human C1 inhibitor purified from milk of transgenic rabbit line 2977q (from UniProt P05155 23-500)”, the functionality index (F.I.): ratio between functionally active C1 inhibitor (C1s inhibition test) and total C1 inhibitor antigen amounted to 0.91.
